Data on 1 substance can be found in publication PMC5748978.

This assay has as its target GST-Abp1^SH3 (UniProt Q62418). The assay can be described thus: pull-down.

For the substance “endogenous Cobl-like from rat brain extracts (natural protein)”, the increase of complex formation with 2 µM Ca2+ over Ca2+-free control came out at 46%.
